For assay [1], the target named is T1, murine IL-21R extracellular domain His-Flag fusion protein (murine, UniProt Q9JHX3 20-237).
T1 construct: Biotinylated in the ELISAs; also called mIL-21R-H/F; murine IL-21R-H/F
The experiment in a line: competition ELISA: scFv mixed with biotinylated murine IL-21R-H/F, added to plate-bound 18A5 IgG (competitor); captured receptor detected with HRP-streptavidin, A450. The protocol: Blocked plates were washed 3× with PBS, and 50 μl/well of scFv/IL-21R mixtures were transferred to the appropriate plates and incubated for 1 hr at RT. Plates were washed 5× with PBS prior to the addition of a 1:6000 dilution of horseradish peroxidase-conjugated streptavidin (Southern Biotech, Birmingham, Ala.) secondary antibody to detect bound biotinylated mIL-21R-H/F. Plates were then incubated for 1 hr at RT and washed 7× with PBS. Signal was developed using 3,3′,5,5′-tetramethylbenzidine (TMB), the reaction stopped with H₂SO₄, and the absorbance read at 450 nm on an ENVISION™ plate reader (Perkin Elmer).
(In general: In an ELISA, binding on a coated surface is turned into a signal by an enzyme label.)

The target of assay [2] is T2, human complement component C1q (human, UniProt P02745 23-245; P02746 28-253; P02747 29-245).
T2 construct: Native C1q in diluted human serum
The experiment in a line: C1q ELISA, antibody coated at 5 µg/ml, human serum 1:50. The protocol:
In order to determine whether cell-surface binding by anti-IL-21R antibodies is likely to lead to complement-dependent cytotoxicity (CDC), the antibodies were tested for their ability to bind to the complement component C1q in an ELISA. […] Diluted antibodies (100 μl) were coated onto a COSTAR® high-binding ELISA plate (Corning Life Sciences, Lowell, Mass.) overnight at 4° C. Plates were washed 3× with PBS/Tween-20 and blocked with 200 μl of blocking buffer (0.1 M NaPO₄, 0.1 M NaCl, 0.1% gelatin, 0.01% Tween) for 1 hr at RT. Human serum previously determined to contain C1q (Quidel, San Diego, Calif.) was diluted 1:50 in PBS. After 1 hr of blocking, plates were washed and 100 μl of diluted serum was added to each well and incubated for 2 hr at RT on a shaker. Following three washes, 100 μl A of 0.1 μg/ml chicken polyclonal anti-human C1q antibody (AbCam, Cambridge, Mass.) was added to each well and incubated for 1 hr at RT. Plates were again washed and incubated with 100 μA of a rabbit polyclonal antibody to chicken Ig-Y—HRP diluted 1:4000 (AbCam) for 1 hr at RT. Plates were washed and developed with TMB for 5 min, followed by 50 μA of 1 M H₂SO₄ to stop the reaction, and then read at 450 nm.

The target of the next assay is murine IL-21 (murine, UniProt Q9ES17 18-146). Nature of the assay: cell-based or functional assay.

T2 sequence (P02745 23-245, chain 1 of 3): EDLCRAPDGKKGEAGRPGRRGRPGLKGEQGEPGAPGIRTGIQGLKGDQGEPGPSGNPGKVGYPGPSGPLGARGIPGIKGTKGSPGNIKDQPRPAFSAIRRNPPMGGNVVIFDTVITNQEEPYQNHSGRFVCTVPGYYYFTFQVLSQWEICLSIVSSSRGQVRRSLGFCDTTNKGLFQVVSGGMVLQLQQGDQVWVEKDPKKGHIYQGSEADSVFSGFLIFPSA
T2 sequence (P02746 28-253, chain 2 of 3): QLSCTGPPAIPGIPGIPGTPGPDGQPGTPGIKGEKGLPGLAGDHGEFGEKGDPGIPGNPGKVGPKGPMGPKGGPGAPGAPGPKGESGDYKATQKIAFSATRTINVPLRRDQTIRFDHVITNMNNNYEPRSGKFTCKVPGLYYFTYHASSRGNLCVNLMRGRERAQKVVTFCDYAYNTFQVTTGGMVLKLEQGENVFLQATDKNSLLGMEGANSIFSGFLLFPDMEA
T2 sequence (P02747 29-245, chain 3 of 3): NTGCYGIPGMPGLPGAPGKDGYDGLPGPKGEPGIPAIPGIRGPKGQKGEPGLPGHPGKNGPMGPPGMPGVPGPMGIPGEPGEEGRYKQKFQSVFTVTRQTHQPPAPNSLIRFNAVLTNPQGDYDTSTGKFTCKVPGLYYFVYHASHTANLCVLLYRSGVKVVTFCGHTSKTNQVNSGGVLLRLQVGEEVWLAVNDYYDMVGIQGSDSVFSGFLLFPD

B1: 18A5 parent scFv (scFv)
scFv: QVQLQESGPGLVKTSETLSLTCAVSGYSISSGYYWGWIRQPPGKGLEWIGSISHTGNTYYNPPLKSRVTISVDTSKNQFSLKLSSVTAADTAVYYCARGGGISRPEYWGKGTLVTVSSGGGGSGGGGSGGGGSALSSELTQDPPVSVALGQTVTLTCQGDSLRTYYASWYQQKSGQAPILLLYGKHKRPSGIPDRFSGSTSGDTASLTITGAQAEDEADYYCNSRDSSGNPHVLFGGGTQLTVL
notes: scFv format of parental 18A5 (not germlined); different molecule from the 18A5 IgG coated on the plate; also called parental 18A5 scFv; scFv parental clone 18A5
Turning to B1, the binding result in assay [1] is given as “binds”.

B2: AbX (antibody, human IgG1)
VH: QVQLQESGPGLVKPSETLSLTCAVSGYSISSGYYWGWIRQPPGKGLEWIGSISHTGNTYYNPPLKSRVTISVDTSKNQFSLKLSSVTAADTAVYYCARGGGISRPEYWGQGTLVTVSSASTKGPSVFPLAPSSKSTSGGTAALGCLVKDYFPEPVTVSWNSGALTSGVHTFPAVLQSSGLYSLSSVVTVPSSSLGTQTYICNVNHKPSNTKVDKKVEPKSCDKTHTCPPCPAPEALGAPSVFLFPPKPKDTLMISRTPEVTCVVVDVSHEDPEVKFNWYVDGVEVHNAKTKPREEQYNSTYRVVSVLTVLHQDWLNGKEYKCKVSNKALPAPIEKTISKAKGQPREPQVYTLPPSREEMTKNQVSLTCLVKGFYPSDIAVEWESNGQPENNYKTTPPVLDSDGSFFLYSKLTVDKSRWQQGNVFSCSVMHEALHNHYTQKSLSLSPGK
VL: SSELTQDPAVSVALGQTVRITCQGDSLRTYYASWYQQKPGQAPVLVIYGKHKRPSGIPDRFSGSSSGNTASLTITGAQAEDEADYYCVARSNKGNPHVLFGGGTQLTVLGQPKAAPSVTLFPPSSEELQANKATLVCLISDFYPGAVTVAWKADSSPVKAGVETTTPSKQSNNKYAASSYLSLTPEQWKSHRSYSCQVTHEGSTVEKTVAPTECS
notes: Same variable domains as AbT; residue limits derived as for m29; also called VHPDM/VL9; copies: 2 + 2
Regarding B2, in assay [2], the binding result is given as “no binding”.

B3: murine IL-21R-Fc (Fc fusion, not shown: a dimerising Fc or GST)
chain: not shown
As for B3, the “Murine IL-21R-BaF3 Neutralization IC50” value in the assay with murine IL-21 turned out to be 0.04 nM.

For the origin of these results see patent US20120276102A1 (Pfizer, published 2012).
